From patent publication US7217694B2, “Inhibitors of IAPP fibril formation and uses thereof” (The Governing Counsel of the University of Toronto, priority 2000, dated 2007) come the findings set out here.

“Also recorded” adds a separate entry of the source.

Experiment [1] addresses T1, hIAPP 1–37 (Homo sapiens, UniProt P10997).
T1 construct: Synthetic human IAPP (1–37) was purchased from BACHEM; purchased BACHEM (Torrence, Calif.); host or cells: chemical synthesis
T1 sequence (P10997 34-70): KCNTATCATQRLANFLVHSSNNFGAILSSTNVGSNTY
The experiment can be described thus: Circular dichroism (CD) of IAPP conformational change, random coil to β-sheet. The note with it: for effect on IAPP β-sheet formation / precipitation (CD): pH 6.5; for effect on initial random structure of IAPP (CD) / conformational change of IAPP (CD): time 0; for effect on initial random structure of IAPP (CD): 1:10 or 1:20 molar ratio; for effect on IAPP conformation (CD), peptides from the 8–20 region: 10-fold molar excess; for effect on IAPP conformation (CD): higher molar ratios / higher concentrations; for inhibitory activity from the circular dichroism results, peptides from the 8–20 region (summary): FIGS. 9A to 16B; for description of activity on IAPP conformation (CD), peptides from the 8–20 region: concentration not given; for inhibition of IAPP β-sheet formation / fibril formation, overall statement (CD): molar ratio not stated. It counts as biochemical. The source says:
(§1) FIG. 1 illustrates the sequence of the amyloid-β (Aβ) peptide and its proposed structural domains. A peptide-based approach similar to that used for Aβ (Tjernberg, et al, J Biol Chem 272:12601–12605, 1997) has been used for targeting two key domains in IAPP initially ranging from the 8–20 and 20–29 sequences as shown in FIG. 2. These peptides, as has been shown for Aβ peptides, are able to bind to the full-length IAPP peptide and alter fibrillogenesis. The peptides disrupt fibrillogenesis by disrupting the folding into the amyloidogenic β-sheet conformation, disrupting protofilament interactions, and/or interfering with side chain interactions within the folded IAPP, which are necessary for aggregation and fibril formation. The peptides that have been examined (shown in FIG. 2) were small, synthetic hexapeptides that correspond to the principal sequence domains of IAPP. […] The in vitro assays included: Circular Dichroism (CD), to look at changes in folding of the amyloidogenic β-sheet; negative stain electron microscopy (EM) to examine changes in fibril morphology and relative density; and ThT fluorescence assay which provides a quantitative assessment of fibril formation.
Synthetic human IAPP (1–37) was purchased from BACHEM (Torrence, Calif.), synthetic peptides spanning the region from IAPP 8 to 20 and 19–31 (FIG. 3) were synthesized by the Peptide Synthesis Laboratory at the University of Toronto using standard FMOC (Fluoroenylmethoxycarbonyl) based solid phase peptide synthesis methodology. The peptides were purified by reverse phase HPLC using water/acetonitrile mixtures buffered with 0. 1% trifluoroacetic acid, on a POROS 20R2 column. The synthetic peptides were solubilized in […] (1 mg/ml), filtered (0.2 μm), aliquotted and lyophilized (Higham, C E., et al., FEBS Lett. 470: 55–60, 2000). Aliquots were reconstituted as required in 20 mM sodium acetate buffer pH 6.5.
CD was used to measure the peptide conformational changes associated with fibril formation. CD experiments were carried out at room temperature, and spectra (average of 5 scans) were collected using a Jasco J720 spectropolarimeter and quartz cuvettes with a path length of 1 mm. […]
(Circular dichroism is the unequal absorption of left and right circularly polarised light.)

Experiment [2] has as its target T1, hIAPP 1–37. The experiment in a line: Negative stain electron microscopy of IAPP fibril morphology and density. Type of experiment: biochemical. The note with it: for effect on IAPP fibril morphology / density / aggregation (EM): molar ratio not stated.
From the text: as §1
TEM was used for structural analysis of in vitro assembled fibrils. Aliquots (4 μl) were applied to pioloform and carbon coated grids. The samples were incubated on the grids for 3 minutes at room temperature, excess material blotted off and stained with 1% phosphotungstic acid (PTA). Excess PTA was blotted off and the sample was left to air dry. All samples were examined using a Hitachi 7000 electron microscope with an accelerating voltage of 75 kV.
In preliminary work the series of peptides were synthesized from the 20–29 domain and examined, via CD, EM and ThT fluorescence, at two molar ratios (1:10 and 1:20) in comparison to the full-length IAPP residues 1–37. The following data (FIGS. 5A to 5D, 6A to 6C and 7A to 7B) were obtained.

Experiment [3] deals with T2, Synthetic human IAPP (1-37) (human, not fully specified).
T2 peptide: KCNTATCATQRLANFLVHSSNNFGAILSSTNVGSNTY
The experiment can be described thus: cell-based or functional assay.

For FGAILS, the “effect on IAPP β-sheet formation / precipitation (CD)” value in the experiment with hIAPP 1–37 [1] (48-hour incubation) is reported as “little effect on the ability of hIAPP (1–37) to form a β-sheet”. The “effect on initial random structure of IAPP (CD)” value (“effect … of IAPP (CD)” for short) with hIAPP 1–37 [1] is given as “had no effect on the initial random structure of IAPP”. In addition, the “effect on IAPP fibril morphology / density / aggregation (EM)” value in the experiment with hIAPP 1–37 [2] is “had no effect on the morphology of IAPP fibrillar aggregates”.

For the molecule QRLANF [FRA-014], the “effect on IAPP fibril morphology / density / aggregation (EM)” value with hIAPP 1–37 [2] was “significantly accelerated aggregation”.

TQRLAN [FRA-013]: in the experiment with hIAPP 1–37 [1], the “effect on IAPP conformation (CD), peptides from the 8–20 region” value is reported as “enhanced formation of the beta-sheet conformation” and the “effect on IAPP conformation (CD)” value is listed as “possibility of a random coil”. Further, the “effect on IAPP fibril morphology / density / aggregation (EM)” value with hIAPP 1–37 [2] is “significantly accelerated aggregation”.

In the case of RLANFL [FRA-015], in the experiment with hIAPP 1–37 [2], the “effect on IAPP fibril morphology / density / aggregation (EM)” value is recorded as “enhanced lateral aggregation (ribbon structures); also recorded: significantly accelerated aggregation”.

On to FLVHSS [FRA-018], for which, in the experiment with hIAPP 1–37 [1], the “inhibitory activity from the circular dichroism results, peptides from the 8–20 region (summary)” value (“inhibitory activity” below) is on record as “have inhibitory activity” and the “description of activity on IAPP conformation (CD), peptides from the 8–20 region” value (“description of activity” for short) is “some modest inhibition”.

Take NFGAIL: the “inhibition of IAPP β-sheet formation / fibril formation, overall statement (CD)” value in the experiment with hIAPP 1–37 [1] is on record as “not inhibitory; also recorded: may actually enhance IAPP fibril formation”. The results for the “conformational change of IAPP (CD)” value with hIAPP 1–37 [1] (10 fold excess) and with hIAPP 1–37 [1] (20 fold excess) were “a conformational change at time 0” and “conformational change from random coil to β-sheet”, respectively. Besides, in the experiment with hIAPP 1–37 [2] (20 fold molar excess), the “effect on IAPP fibrils (EM)” value is recorded as “appeared to enhance IAPP aggregation”. Besides, the “effect on IAPP fibril morphology / density / aggregation (EM)” value with hIAPP 1–37 [2] is on record as “slightly enhanced fibril formation; also recorded: had no effect on the morphology of IAPP fibrillar aggregates; also recorded: immediate increase in the development of fibrils”.

Take SSNFGA: the “inhibition of normal IAPP fibrillar aggregation (EM)” value in the experiment with hIAPP 1–37 [2] (reduced inhibitor concentrations) was “effective inhibitors of normal IAPP fibrillar aggregation”.

On to SSNNFG, for which the “hIAPP conformation by CD” value in the experiment with hIAPP 1–37 [1] (1:1 molar ratio with IAPP) is recorded as “maintained hIAPP (1–37) in a random coil conformation”. The “effect on IAPP β-sheet formation / precipitation (CD)” value with hIAPP 1–37 [1] (48-hour incubation) was “capable of maintaining IAPP in a random conformation”. Besides, in the experiment with hIAPP 1–37 [1], the “inhibition of IAPP β-sheet formation / fibril formation, overall statement (CD)” value was “strong inhibitors of β-sheet formation; also recorded: effective inhibitors even when used at low concentrations” and the “effect … of IAPP (CD)” value was “had no effect on the initial random structure of IAPP”. Besides, the “effect on IAPP fibril morphology / density / aggregation (EM)” value with hIAPP 1–37 [2] is “typical high density of IAPP fibrils was not seen; also recorded: absence of fibrillar aggregates which could act as seeds”.

In the case of AILSST, in the experiment with hIAPP 1–37 [1] (1:1 molar ratio with IAPP), the “hIAPP conformation by CD” value is recorded as “no longer inhibitory”. For the same molecule, the “inhibition of IAPP β-sheet transition and aggregation (CD)” value with hIAPP 1–37 [1] (1:10 or 1:20 molar ratio (10- or 20-fold molar excess)) is listed as “very strong inhibitors of IAPP β-sheet transition”. In addition, the “hIAPP conformation by CD” value with hIAPP 1–37 [1] (5-fold molar excess) is “able to maintain hIAPP as a random coil peptide”. Further, the “inhibition of IAPP β-sheet conformational change at reduced concentrations (CD)” value with hIAPP 1–37 [1] (5-fold molar excess (1:5) or 1:1 molar ratio) is recorded as “capable of maintaining the majority of hIAPP in a random coil conformation”. Besides, in the experiment with hIAPP 1–37 [1] (48-hour incubation), the “effect on IAPP β-sheet formation / precipitation (CD)” value is reported as “able to prevent the attenuation of signal due to precipitation of IAPP”. For the same molecule, in the experiment with hIAPP 1–37 [1], the “effect on IAPP conformation (CD)” value is given as “prevented the conformational change to β-sheet”; the “inhibition of IAPP β-sheet formation / fibril formation, overall statement (CD)” value was “greatest inhibition of IAPP fibril formation”; the “effect … of IAPP (CD)” value is “had no effect on the initial random structure of IAPP”. In the experiment with hIAPP 1–37 [2], the “effect on IAPP fibril morphology / density / aggregation (EM)” value is “fibrils formed were less numerous; also recorded: absence of fibrillar aggregates which could act as seeds”.

For the molecule ATQRLA [FRA-012], in the experiment with hIAPP 1–37 [1], the “inhibitory activity” value is listed as “have inhibitory activity” and the “effect on IAPP conformation (CD)” value was “limited inhibition”. Besides, the “effect on IAPP fibril morphology / density / aggregation (EM)” value with hIAPP 1–37 [2] was “only limited effects on the density and morphology of the fibrils”.

ILSSTN: in the experiment with hIAPP 1–37 [1] (48-hour incubation), the “effect on IAPP β-sheet formation / precipitation (CD)” value is “little effect on the ability of hIAPP (1–37) to form a β-sheet”. Moreover, the “effect … of IAPP (CD)” value in the experiment with hIAPP 1–37 [1] is on record as “had no effect on the initial random structure of IAPP”.

With LANFLV [FRA-016], in the experiment with hIAPP 1–37 [1], the “effect on IAPP conformation (CD), peptides from the 8–20 region” value is listed as “relatively good inhibition”; the “inhibitory activity” value is given as “have inhibitory activity”; the “effect on IAPP conformation (CD)” value is “better activity”. Also, the “effect on IAPP fibrils (EM)” value with hIAPP 1–37 [2] (10-fold excess) is recorded as “disruption of normal fibrils”. The “effect on IAPP fibrils (EM)” value in the experiment with hIAPP 1–37 [2] (20 fold molar excess) is “Some fibrils were also seen”.

For ANFLVH [FRA-019], in the experiment with hIAPP 1–37 [1], the “inhibitory activity” value is on record as “have inhibitory activity” and the “description of activity” value is on record as “maintained a random coil”. For the same molecule, the “effect on IAPP fibril morphology / density / aggregation (EM)” value with hIAPP 1–37 [2] is given as “lower density of IAPP fibrils”.

Regarding NFLVHS [FRA-017], in the experiment with hIAPP 1–37 [1], the “inhibitory activity” value is on record as “have inhibitory activity” and the “description of activity” value is recorded as “limited inhibitory activity”. Further, the “effect on IAPP fibril morphology / density / aggregation (EM)” value in the experiment with hIAPP 1–37 [2] was “only limited effects on the density and morphology of the fibrils”.

NNFGAI: the “effect on IAPP β-sheet formation / precipitation (CD)” value with hIAPP 1–37 [1] (48-hour incubation) is “little effect on the ability of hIAPP (1–37) to form a β-sheet”. For the same molecule, the “effect on IAPP aggregation or precipitation (CD)” value with hIAPP 1–37 [1] (48-hour incubation, 10 fold molar excess) is “no effect on aggregation or precipitation of hIAPP”. In addition, the “IAPP conformation (CD)” value in the experiment with hIAPP 1–37 [1] (48-hour incubation, 20-fold molar excess) is recorded as “maintain IAPP in a random conformation”. Further, in the experiment with hIAPP 1–37 [1], the “inhibition of IAPP β-sheet formation / fibril formation, overall statement (CD)” value is listed as “little, if any, inhibitory properties” and the “effect … of IAPP (CD)” value is listed as “had no effect on the initial random structure of IAPP”. Moreover, the “effect on IAPP fibril morphology / density / aggregation (EM)” value with hIAPP 1–37 [2] is “had no effect on the morphology of IAPP fibrillar aggregates”.

For GAILSST, the “effect on IAPP conformation (CD)” value with hIAPP 1–37 [1] was “prevented the conformational change to β-sheet”.

For the molecule SNNFGA, in experiment [3], the “sedimentation assay: soluble hIAPP remaining after 24 hours, 10 fold excess of peptide” value was roughly 15%; the “sedimentation assay: soluble hIAPP remaining after 48 hours, 10 fold excess of peptide” value is roughly 25%; the “sedimentation assay: soluble hIAPP remaining after 72 hours, 10 fold excess of peptide” value was roughly 20%.

Take NNFGAI: in experiment [3], the “molar excess of peptide needed to keep IAPP in random conformation (CD, 48 hours)” value was 20 fold molar excess.

As to GAILSS, in experiment [3], the “sedimentation assay: soluble hIAPP remaining after 24 hours, 10 fold excess of peptide” value is greater than 80%; the “sedimentation assay: soluble hIAPP remaining after 48 hours, 10 fold excess of peptide” value is roughly 25%; the “sedimentation assay: soluble hIAPP remaining after 72 hours, 10 fold excess of peptide” value is roughly 20%.
